The text below walks through data of publication PMC3080406, “Efficient Conversion of Phenylpyruvic Acid to Phenyllactic Acid by Using Whole Cells of Bacillus coagulans SDM” (PLoS ONE, 2011).

What all share (assay): NADH oxidation assay
What all share (format): biochemical, Heyndrickxia coagulans

Substrate in series [1]: O=C(O)C(=O)Cc1ccccc1
As to conditions: 0.2 mM NADH, 50 mM Tris-HCl pH 7.0, 50°C, no FDP. The source says: (§1) NADH oxidation assay on D-nLDH

Substrate in series [2]: CC(=O)C(=O)O
As to conditions: 0.2 mM NADH, 50 mM Tris-HCl pH 7.0, 50°C, no FDP.
Excerpt: as §1

Substrate in series [3]: O=C(O)C(=O)Cc1ccccc1
Particulars: 0.2 mM NADH, 5 mM FDP (fructose 1,6-bisphosphate), 50 mM Tris-HCl pH 7.0, 50°C. The text has this: (§2) NADH oxidation assay on L-nLDH

Substrate in series [4]: CC(=O)C(=O)O
Particulars: 0.2 mM NADH, 5 mM FDP (fructose 1,6-bisphosphate), 50 mM Tris-HCl pH 7.0, 50°C.
Excerpt: as §2

B1: D-nLDH (Heyndrickxia coagulans) (protein)
chain: MRKVVAYETRADEFPLFQKFARKFDLDIKYIDDVLTPETAMEAKGAEAVTILGNYPVGSGTFKALRDVGVKYIGLRTAGNNHIDQEAAKAYGIRFSNVAYSPYCVADFATMLILMCVRKAKQILSRVEAQDFSVEGIQGREMRNLTIGIIGAGRIGSIVAKNLSGFGCNLIAHDTVERDELRGILKYVSLDELLEESDVITIHTPLFESTYHMINQERIAKIKDGVCIINCSRGAEVDTYALIAGIEAGKAGAAGIDVLEDEEGIFHYDRRTDILDHRQLAILRSFPNVIVTPHTAFYPNQAVSDMAEMALTSLVSFVETGKSRWEIKS
notes: full-length ldhD in pET-28a, N- and C-terminal His tags kept, expressed in E. coli BL21(DE3), HisTrap purified
One may read the Km as the concentration of substrate that gives half-maximal velocity. As a reminder, the Vmax is the rate approached at saturating substrate. The kcat is the number of substrate molecules converted per active site and unit of time at saturation. By kcat/Km is commonly meant the turnover number divided by the Michaelis constant. For the protein B1, in series [1], the Michaelis-Menten constant (Km) came to 4.4 mM, the Vmax was 23.5 µmol/min/mg, the kcat amounted to 16.5 s⁻¹ and the kcat/Km turned out to be 3900 M⁻¹ s⁻¹. In series [2], the Km was determined as 2.2 mM, the Vmax was 33.7 µmol/min/mg, the kcat came to 23.6 s⁻¹ and the specificity constant (kcat/Km) was determined as 11000 M⁻¹ s⁻¹.

B2: L-nLDH (Heyndrickxia coagulans) (protein)
chain: MKKVNRIAVVGTGAVGTSYCYAMINQGVAEELVLIDINEAKAEGEAMDLNHGLPFAPTPTRVWKGDYSDCGTADLVVITAGSPQKPGETRLDLVSKNAKIFKGMIKSIMDSGFNGIFLVASNPVDILTYVTWKESGLPKEHVIGSGTVLDSARLRNSLSAQFGIDPRNVHAAIIGEHGDTELPVWSHTNIGYDTIESYLQKGIIDEKTLDDIFVNTRDAAYHIIERKGATFYGIGMSLTRITRAILNNENSVLTVSAFLEGQYGNSDVYVGVPAIINRQGIREVVEIKLNEKEQEQFNHSVKVLKETMAPVL
notes: full-length ldhL in pET-28a, N- and C-terminal His tags kept, expressed in E. coli BL21(DE3), HisTrap purified
For the protein B2, in series [3], the Km stood at 4.3 mM, the Vmax turned out to be 72.6 µmol/min/mg, the kcat came to 47.2 s⁻¹ and the kcat/Km was 11000 M⁻¹ s⁻¹. Further, in series [4], the Km is listed as 2.6 mM, the Vmax is 1800 µmol/min/mg, the kcat is 1170 s⁻¹ and the kcat/Km turned out to be 450000 M⁻¹ s⁻¹.
